Results from article doi:10.1101/2020.11.23.395327.

Assays:
[1] = biological target: PII(WT)-His, signaling protein PII from Synechocystis sp. PCC 6803 (Synechocystis sp. PCC 6803) (UniProt Q55247); assay: BLI
[2] = biological target: PII(S49E), phosphomimetic variant (Synechocystis sp. PCC 6803) (UniProt Q55247); assay: BLI

Row | Substance | Kd [1] [µM] | Kd [2] [µM] | binding signal, fold lower than that of GST-PirA [1] [fold]
1 | GST-PirA (GST-tagged PII-interacting regulator of arginine synthesis, Ssr0692) (natural protein) | 2.9 | 2.5 | –
2 | tag-free PirA (natural protein) | – | – | 6
